Laboratory results published in PMC8047445.

Legend:
[1] = biological target: cHSP27 (isolated alpha-crystallin domain of HSP27) (human) (UniProt P04792); experiment: 15N CPMG relaxation dispersion NMR; same data as a2; pB fixed at the value expected from the titration Kd (4.9% WT, 7.2% P182L) and delta R2 allowed to be non-zero
[2] = biological target: cHSP27 (isolated alpha-crystallin domain of HSP27) (human) (UniProt P04792); experiment: 15N CPMG relaxation dispersion NMR; 2H,15N-cHSP27 1.5 mM with 80 µM WT or 200 µM P182L peptide, 25 °C, 11.7 and 14.1 T; naive two-state fit (delta R2 = 0), kon and koff from pB and kex; apparent
[3] = biological target: cHSP27 (isolated alpha-crystallin domain of HSP27) (human) (UniProt P04792); experiment: NMR titration; 2D 1H-15N HSQC titration of 15N-cHSP27 (oxidised, disulfide-linked dimer) with unlabelled peptide, 25 °C, 30 mM sodium phosphate, 2 mM EDTA, pH 7; two-state 2D lineshape fit with TITAN on fast- and slow-exchange residues; apparent
[4] = biological target: cHSP27 (isolated alpha-crystallin domain of HSP27) (human) (UniProt P04792); experiment: NMR titration; earlier TITAN lineshape fit of the HSQC titration, as told in the first response to reviewers
[5] = biological target: cHSP27 (isolated alpha-crystallin domain of HSP27) (human) (UniProt P04792); experiment: 15N CPMG relaxation dispersion NMR; earlier two-state fit of the CPMG RD data, as told in the first response to reviewers; koff = kex(1-pB), kon = kex pB/[L]free
[6] = biological target: cHSP27, isolated alpha-crystallin domain (ACD) of HSP27, oxidized disulfide-linked dimer (human) (UniProt P04792); experiment: NMR titration; 2D 1H-15N HSQC of 15N-cHSP27 (oxidized dimer) with unlabeled peptide, 25 C, 30 mM sodium phosphate, 2 mM EDTA, pH 7; global fit of CSPs of fast-exchange resonances to a two-state model (equation 2)
[7] = biological target: cHSP27, isolated alpha-crystallin domain (ACD) of HSP27, oxidized disulfide-linked dimer (human) (UniProt P04792); experiment: NMR titration; same HSQC titration, 25 C; 2D lineshape analysis with TITAN, fast- and slow-exchange residues fitted globally
[8] = biological target: cHSP27, isolated alpha-crystallin domain (ACD) of HSP27, oxidized disulfide-linked dimer (human) (UniProt P04792); experiment: NMR 15N CPMG relaxation dispersion; 2H,15N-cHSP27 (oxidized dimer) 1.5 mM with 80 uM WT peptide or 200 uM P182L peptide, 25 C, 500 and 600 MHz; naive two-state fit

koff [1] [s⁻¹]	kon [1] [M⁻¹ s⁻¹]	kon [2] [M⁻¹ s⁻¹]	koff [3] [s⁻¹]	kon [3] [M⁻¹ s⁻¹]	koff [4] [s⁻¹]	koff [5] [s⁻¹]	kon [5] [M⁻¹ s⁻¹]	Kd [6] [µM]	Kd [7] [µM]	Kd [8] [µM]	koff [8] [s⁻¹]	pB (percent of cHSP27 bound, by CPMG RD) [8] [%]	Substance
547	500000	73000	771	600000	774	840	83000	–	–	–	–	–	P182L peptide (C-terminal IxI/V peptide of HSP27 with the CMT mutation P182L)
–	–	–	–	–	–	–	–	1030	1280	8370	610	2	P182L peptide comprising the mutated IxI/V (ILV) motif of the HSP27 C-terminal region
346	2.8e+06	290000	207	1.6e+06	–	759	300000	–	–	–	–	–	WT peptide (C-terminal IxI/V peptide of HSP27)
–	–	–	–	–	–	–	–	124	132	1760	515	2.4	WT peptide comprising the IxI/V (IPV) motif of the HSP27 C-terminal region
